B1: Amylosucrase, Q9ZEU2 (parent)
chain: MLTPTQQVGLILQYLKTRILDIYTPEQRAGIEKSEDWRQFSRRMDTHFPKLMNELDSVYGNNEALLPMLEMLLAQAWQSYSQRNSSLKDIDIARENNPDWILSNKQVGGVCYVDLFAGDLKGLKDKIPYFQELGLTYLHLMPLFKCPEGKSDGGYAVSSYRDVNPALGTIGDLREVIAALHEAGISAVVDFIFNHTSNEHEWAQRCAAGDPLFDNFYYIFPDRRMPDQYDRTLREIFPDQHPGGFSQLEDGRWVWTTFNSFQWDLNYSNPWVFRAMAGEMLFLANLGVDILRMDAVAFIWKQMGTSCENLPQAHALIRAFNAVMRIAAPAVFFKSEAIVHPDQVVQYIGQDECQIGYNPLQMALLWNTLATREVNLLHQALTYRHNLPEHTAWVNYVRSHDDIGWTFADEDAAYLGISGYDHRQFLNRFFVNRFDGSFARGVPFQYNPSTGDCRVSGTAAALVGLAQDDPHAVDRIKLLYSIALSTGGLPLIYLGDEVGTLNDDDWSQDSNKSDDSRWAHRPRYNEALYAQRNDPSTAAGQIYQGLRHMIAVRQSNPRFDGGRLVTFNTNNKHIIGYIRNNALLAFGNFSEYPQTVTAHTLQAMPFKAHDLIGGKTVSLNQDLTLQPYQVMWLEIA

Variants of: B1
Conditions: Neisseria polysaccharea; pH 7; Thermal; DSF; Tris 50 mM; structure 1G5A; whole UniProt chain shown

Variant | change of melting temperature, mutant - wild type (higher = more stable)
F258Y | -0.8 °C
F258N | -3.2 °C
R517A | 0 °C
H195N | -1.4 °C
H195D | -3.4 °C
H195R | -5 °C
H195L | -6.4 °C
H195M | -0.2 °C
H195Y | -3.2 °C
H195I | -6.6 °C
H195C | -0.2 °C
H195V | -4 °C
H195K | -0.4 °C
H195T | -4 °C
H195W | -5.8 °C
H195A | -1.6 °C
H195G | -2.8 °C
H195Q | -3 °C
D152I | -1.6 °C
D152A | 0.2 °C
D152E | -1.4 °C
Y155N | -1 °C
Y155A | -1 °C
Y155F | -0.2 °C

Variant | change of melting temperature, mutant - wild type (higher = more stable)
R292K | 1.6 °C
R292H | 0.4 °C
R292V | 1.8 °C
D515I | 0.6 °C
D515A | 0.8 °C
H400C | 0.8 °C
H400M | 0.4 °C
H400S | 0.2 °C
H400K | -1.6 °C
H400L | -0.4 °C
H400Y | 2 °C
H400N | -0.2 °C
H400T | 0.4 °C
H400W | 0.4 °C
H400G | 0.8 °C
H400P | 2.2 °C
H400Q | -0.4 °C
H400F | -2.4 °C
H400I | -0.2 °C
H400E | 0.4 °C
H400V | 0.2 °C
R454E | -2.2 °C
R454A | -0.2 °C
R454F | 0.2 °C
